Test results from the DeepSol protein solubility set.

assay: soluble on expression in E. coli; label from the status in PepcDB or PDB records

Row | Sequence | soluble on expression in E. coli
1 | MSLKGIVEKSVGDLETLAFDGRTYIEYLNAVTESEKALQSNHFELSLRTEATQGLVLWIGKVGERADYMALAIVDGHLQLSYDLGSQPVVLRSTVKVNTNRWLRVRAHREHREGSLQVGNEAQVTGSSPLGATQLDTDGALWLGGMQKLPVGQALPKAYGTGFVGCLRDVVVGHRQLHLLEDAVTKPELRPCPTEGHHHHHH | soluble
2 | MSLENKETTTTTTTTNNGSDKKKRSLKIDLHTHILPKNWPNLKEKYGYGGWVSLDHHCSCKAKMMIDGKFFREIDSNCWDPDVRIQELNRDDVDIQVLSTVPVMFGYWAKPQDALDLAQYLNDHIAQVVSENPKRFIGLGSLPMQCTESSIQELRRCILELGLPGIQIGSNVNGKNLDDPSLFPIFEECEKLGAAVFIHPWEMVGKDRMPQYWLPWLVGMPAETCLAICSMIFGGVFQRLPNLKVCFAHGGGSFPFTIGRIEHGFNARPDLCAVVNPINPREYIGKFWVDSLVHDEEALKFLVNLMGEKKVTLGTDYPFPLGELVPGQLIESIKEFSETTKENLLGGNALEFLGLDPNKYLEGHHHHHH | soluble
3 | MGSDKIHHHHHHMTSEKGIIFNIQHFSIHDGPGIRTTVFLKGCPLRCPWCSNPESQKYKPEQMLDAETKLPMIIGEEKTVEDIISEVKKDIDFYEESGGGLTLSGGEIFAQFEFAKAILKCAKEEGLHTAIETTAFAEHEKFTDLIQYVDFIYTDLKHYNTIRHRKVTGVNNNFIIQNIHYAFTHKKTIVLRIPVIPDFNNSLDDAEHFAKLFNDIQVDKVQLLPFHQFGENKYKFLNRKYEMSGYTALHPEDLYDYQSVFLEHGIDCYF | not soluble
4 | MGSQAIEAHREGAEVYHGAALCAEKAVELLAEIHMPLGLLPLAEMEEVGYNRATGFVWLRQKKAITHTFKQISRQVSFAAEVTAFVEDRRMKRVTGAKTKELLIWVSLSDMFIDKDDASKITFKTPTGLGRTYPVDAFAKEDDGKGKVPAAAAAANGKETAVNGKAK | soluble
5 | MGSDKIHHHHHHMLVTELNIYPLKSARGIALKESAVSAEGLPGDRRAMLTDPSGHFITQRELPAIATVLARHEDGGMALSRERSGEIFARPSGQRMDVAVWKSIVSANIADDETNDTLSAWLGREVKLVFFDDAAKRIASLEWTGNETPVTFADGYQILVTTTASLAALNDNMRGNGEDAVGMERFRPNIVLETEEAWAEDRWAAIEIGGIRFDLVKPCARCIMTTQDQMTGSRDVPSPMKAMGRIRMSGDRRVPGPLFGWNVTPRGEGRLSVGDVARVVEERPEGWAIKRR | not soluble
6 | MKQLYGVIGNPIGHSLSPVMHNDAFEHLKMDAHYHAFLVKEEVLGEAVRGLKALGISGFNVTTPHKVAIMDYLDEIDPLAKQIGAVNTVVHKDGKLIGYNTDGIGFVRALQSISSEPLQEKRILLLGAGGASRAIYFSLADAGVKEIDVANRTVDKAKELIAACTATVHSVALSLEKATKEQGNYDIIIQTTTIGMHPRVEHTPLQISSLKKGTIVSDIIYNPFETKILCEAKEQGAIIQNGIDMFVYQGALAFEMWTGCVPNIERMKQLVIRNLEANIYVNRKTKKIFTCTSTSFNTNFSSRKRRSK | not soluble
7 | MKHSHLYELQPDPYDFTQRKTCRVCLFKDVKNAAELSQQLKEGKIDAALIRAELVLEPFVLLAAANRAVHQSAHNRMSCRSLAAELVYSLSPSRNITDSLVTFGIAEHSTAIIAAIFDDDSGKAMKKLAKAIKGTPVPLMEGLPKFANVNMIKKVYQVGNPAFVEEGLSDHIVSRMVSKDFVS | not soluble
8 | MGSDKIHHHHHHLAADQDTETQEMLLVMSDLDAQGFDQRRINLTQAELYACIEWLARFHAMFAYEAFPKEDALDDASYDGLWPIGTYWHLATRPDELEVMTDSPLKNATEAIDARLNQARFQTLVHGDAKVANFCFHKEVESLGVNGVAAVDFQYVGAGIGVKDFIYLLGSCLDEAQLVTIYDAACSHYFKSLKQQLSGRWAAEQIEALVAEWSDLLPFAWADFERFLAGWQPQHHKRNGFSQDMTQRVLKALGSVR | not soluble
9 | GSMDCEVNNGSSLRDECITNLLVFGFLQSCSDNSFRRELDALGHELPVLAPQWEGYDELQTDGNRSSHSRLGRIEADSESQEDIIRNIARHLAQVGDSMDRSIPPGLVNGLALQLRNTSRSEEDRNRDLATALEQLLQAYPRDMEKEKTMLVLALLLAKKVASHTPSLLRDVFHTTVNFINQNLRTYVRSLARNGMD | soluble
10 | MDAQLEWASSLVPKRQLQQQQQQQEQQQQQQQDFHKDQLMTVGMRIRQRVDQGYASRTPSTSDASLQPGVIRDYSSVIVPQFTRSPLPTANSLPPMLINQRTMSTEASSLEKWDVAEPAAEHETMVNGSKRRL | soluble
11 | MGSDKIHHHHHHMRKVVEVSGVRKSFGELRVLDKVDFYAEEGDFKVIVGENGSGKSTLLKIMIGLLLPDDGEVKVLGVDVKKHWKKLSARIGVVLANERSLYWKLTAWENLDIFGGVYGVPKKVRRERMEELLKRFGLFEYKDKPVEEFSTGMRKKLMICKALIHDPEVLFIDEILNGLDPPSVREMVGFLDERNRRGLTIVMISHVLHVLPENACVVLLRNGRVQMEVRYKDIRSERSEVYEVFENLIRGRNMDEEDTPSGSEGDEDKA | not soluble
12 | MGSDKIHHHHHHMDELYIMNPWWRDPEIINTDRHISMFENSTFKYFPENLFKKIPLNKPGIYTIRGPRQVGKTTFLKLYIRKLLRDGVKPSNIFFFTCDAVKDRFELIETMKAYFQIFERKAGETRYLFIDEITAVEDWQKSIKYLVDIGLLENSLLILTGSSAFDLKRSSERLPGRKGYGEDLVYLPLTFGEFLESLGISVERMSVDDIFLKSEEELRILYLKNSFLKEYFVKYLNTGGFPKVIDVFLKEGKIDEITKGVFRDFILGDAEKYLGSRIKVIEIFKKLPDIVGQRFSWNSLVDIFSGAIESVDTIQKYFEYLGYSFILMNVFFVDISRKTVRLKKQKKTYPIDRVVVDIIEEISGKQIKLPQIVEMLTLRHLMGNGKTLPNGMNLYDGPFFWYSDRGNEVDFVFEHGDSLIPVEINFQNNIHRSDYAGMKKVFKKGIVITQDAIFRDENIVAVPAWLFFAVFEGNE | not soluble
13 | MKIGIDAGGTLIKIVQEHDNRRYYRTELTTNIQKVIDWLNNEEIETLKLTGGNAGVIADQIHHSPEIFVEFDASSKGLEILLDEQGHQIEHYIFANVGTGTSFHYFDGKDQQRVGGVGTGGGMIQGLGYLLSNITDYKELTNLAQNGDRDAIDLKVKHIYKDTEPPIPGDLTAANFGNVLHHLDNQFTSANKLASAIGVVGEVITTMAITLAREYKTNHVVYIGSSFNNNQLLREVVENYTVLRGFKPYYIENGAFSGALGALYLLEHHHHHH | soluble
14 | NGNPIPMGYSQAVENNVQITNFALFSAAAIGVELCLFDEQNQETRLPMVRTENVWHLAVTGVKTGTEYAFRIHGEFANPQKLILDPYAKAVNGKPDLSSEESRSWFLLSDNRDNAHLAPRAVVIS | not soluble
15 | MHHHHHHPMEPEIKIVNVVVSTKIGDNIDLEEVAMILENAEYEPEQFPGLVCRLSVPKVALLIFRSGKVNCTGAKSKEEAEIAIKKIIKELKDAGIDVIENPEIKIQNMVATADLGIEPNLDDIALMVEGTEYEPEQFPGLVYRLDDPKVVVLIFGSGKVVITGLKSEEDAKRALKKILDTIKEVQEL | soluble
16 | MVTVPEGYEANVIYALGDSINPRVGDWDDNNIPSGPSFQFRSGDCHDGMHYFGLNTSTNRFDETVSAQGLLVMNHEYINQTFLHPKGPTKVDGRRPEDEVIRETNAHGVSVVHIKKDPTTQKVEIVKNSIFNRRITASTVMEFAGAAAGSSLLATRFSPAGRQTRGTHNNCGNGYTPWGTYLTTEENFIGYFQRSGSDEYARTDAEKIALKRYGLGVKKDEPYLYEKDEKGAPKKDKDGKIIYLKDKNGELIPNVDEQGRQIYLGTSSRYGWETAIGQVESQDLYDRWNADVKAAQATQDYRNGPNTFGWMVEIDPFDGRQNPVKRTSLGRFAHEDSACRAVVGQPLAFYMGDDSRGEYIYKFVSTAVWDTKDINGGYTAGDKYMNAGKLYVAKFNNDGSGQWIELAYGKNGLNESNTTYPFKSQADVVTFARLAADSVGATKMDRPEWCTVNPVNGEIYVTLTNNSNRGKDYATDAANPRNYTDLYAGTKEQKGNVNGHIIRFKETDDKTTAETFKWDIYLFGAEASMASNINLSGLTDNNDFSSPDGMWFDPRGVLWIETDDGAYTDVTNCMMLAALPGQIGDGGTLEHHHHHH | soluble
17 | MAAAPFDPAEVFQVFGMRRVDSASFDEQVVQAPGDDLRCVFLWGQDCYNCGIFKQTALLQRQALLALELSWFEADVYADEALGRRFSLHGVPTFVLYRSGKRLGRVTGWPGLPQFSAAMQRLRDGT | not soluble
18 | MGSDKIHHHHHHMTIPTSYLNHTDAEAARKARATYRDGLVAPTSGIAPGFTQANMIVLPRDWAFDFLLYAQRNPKPCPVLDVSDPGSPTTLLAPGADLRTDLPLYRIWRDGKLAEETADATSAWAERDDLVAFLIGCSFTFETPMVEAGIEIRHMTDKSNVPMYLTNRPCRPAGRLKGNMVVSMRPIPASRVADAATISGRFPAVHGAPVHVGAPEQIGISDLSKPDFGDAVRIEPGEVPVFWACGVTPQAAVMASGVPFAITHAPGHMFITDIPDTAYHA | not soluble
19 | MGSDKIHHHHHHMKIVYCIAGTYNSGGMERVLANKANYLVSHGYEVVIITTDQREKQSFFELDQRINCCDLRINYEENNGKSFLNKLANYPFKQWKHRKRLTACLKQLKADIVVSMFCNDASFLWKIDDGSKKVLEIHFSRYKRLQYGRKGVWKIADRWRSRMDERTVRKYDRFVVLTAEDKAYWGNLSNMIVIPNALSHSTTELHLSPLTARKVIAIGRYGYQKGFDYLIEAWEIIHCAQPAWTLDIIGDGEWTDRLQRQIKRKRLNHCVFLKPPTGQIEEEYRQASLLVLSSRYEGLPMVLLEAQSFGLPIVSFACKCGPGDVITDGKNGFLVSVGNLPMLADRIMRLMEDEGLRKRMGMNAYHNSKTFSEERIMQCWIDMFDKLVSQR | not soluble
20 | SREPVDILREQKINAEWALKQQSDKLAAQFDNMDDAYLRERKQDMLQVVRRIHNNLIGQGNELEVADNLFDETVLIANDLSPADTVLFKEQR | not soluble
21 | MGLSNRAIIIDGKNHLLGRLASIVAKKLLQGDKVVVLRAEEIVISGNFHRSKLKYMSFLRKRCNINPARGAFHYRAPGKIFWRTVRGMLPHKTNRGNEALKNLRAYEGVPAKYQKTKSLHAPSASRFRLQPRRKFCVVGRLSHEVGWQFQDVVAKLEAKRKVKGAAYFEQKKKMDKLAVQAKKNAAPKIAQYQKIIEALGYN | not soluble
22 | MSNIPKELKYTKSHEWVKIDGDEVTVGITAHAQSLLGDLVYVELPEIGKEFAAGDDSCVVESVKAASDVYAPVDGEVIEINEALVDDPSRVNHTPYKDGWLFKLKISDESQLADLLTADAYAKTLED | not soluble
23 | MSSTSRIMRPDDANIVGNVHGGTILKMIEEAGCIIGTRHCNTQSGDRCLAALARVERTDFLHPMFIGEVAHVSAEITYTSKHSVEVQVNVLAENIVTGAKKVTNKATLWYVPLSLQNVDKIIEVPPIEYSSPEREEAGKKRYEAQKLERLEDKVRNGEIIMSVSLPEPYTVVCSQSSLIHLVGPSDCTLHGFVHGGVTMKLMDEVAGIVAARHCKTNIVTASVDAINFHRKIKKGCVITVSGRMTFTSNKSMEI | soluble
24 | QITYWKERQRRKTIRAEEIRGLIYRIWKIYPSLLGQELLESTIFVFMVLAAVARLGAEDVAVYKLLDLVCGMLELPVYAYAAATQTYALQNHAAGKKAAVRSYEK | not soluble
